Laboratory results from US20210388087A1 (Chugai, published 2021).

These binders were tested against T1, CD3 epsilon homodimer protein (UniProt P07766 23-126) (assay: SPR Biacore T200, CD3e homodimer on chip, vs unaltered GLS3000 antibody).
T1 construct: also called CD3 (CD3 epsilon)
T1 sequence (P07766 23-126): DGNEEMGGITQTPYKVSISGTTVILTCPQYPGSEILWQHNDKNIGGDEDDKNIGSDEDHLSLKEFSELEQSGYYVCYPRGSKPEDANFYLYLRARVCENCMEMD

| Binder | ratio of amounts bound (Z=Y/X) |
| --- | --- |
| GLS3000 N28I (antibody, name in Kabat numbering, V domains shown, one-arm IgG as m2) VH: QVQLVESGGGVVQPGRSLRLSCAASGFTFSNAWMHWVRQAPGKGLEWVAQIKAKSNNYATYYAESVKGRFTISRDDSKNSLYLQMNSLKTEDTAVYYCRYVHYGAYYGVDAWGQGTTVTVSS VL: DIVMTQSPLSLPVTPGEPASISCRSSQSLVHSIRNTYLHWYQQKPGQAPRLLIYKVSNRFSGVPDRFSGSGSGTDFTLKISRVEAEDVGVYYCGQGTQVPYTFGQGTKLEIK | 0.44 |
| GLS3000 N28K (antibody, name in Kabat numbering, V domains shown, one-arm IgG as m2) VH: QVQLVESGGGVVQPGRSLRLSCAASGFTFSNAWMHWVRQAPGKGLEWVAQIKAKSNNYATYYAESVKGRFTISRDDSKNSLYLQMNSLKTEDTAVYYCRYVHYGAYYGVDAWGQGTTVTVSS VL: DIVMTQSPLSLPVTPGEPASISCRSSQSLVHSKRNTYLHWYQQKPGQAPRLLIYKVSNRFSGVPDRFSGSGSGTDFTLKISRVEAEDVGVYYCGQGTQVPYTFGQGTKLEIK | 0.44 |
| GLS3000 N28L (antibody, name in Kabat numbering, V domains shown, one-arm IgG as m2) VH: QVQLVESGGGVVQPGRSLRLSCAASGFTFSNAWMHWVRQAPGKGLEWVAQIKAKSNNYATYYAESVKGRFTISRDDSKNSLYLQMNSLKTEDTAVYYCRYVHYGAYYGVDAWGQGTTVTVSS VL: DIVMTQSPLSLPVTPGEPASISCRSSQSLVHSLRNTYLHWYQQKPGQAPRLLIYKVSNRFSGVPDRFSGSGSGTDFTLKISRVEAEDVGVYYCGQGTQVPYTFGQGTKLEIK | 0.39 |
| GLS3000 N28M (antibody, name in Kabat numbering, V domains shown, one-arm IgG as m2) VH: QVQLVESGGGVVQPGRSLRLSCAASGFTFSNAWMHWVRQAPGKGLEWVAQIKAKSNNYATYYAESVKGRFTISRDDSKNSLYLQMNSLKTEDTAVYYCRYVHYGAYYGVDAWGQGTTVTVSS VL: DIVMTQSPLSLPVTPGEPASISCRSSQSLVHSMRNTYLHWYQQKPGQAPRLLIYKVSNRFSGVPDRFSGSGSGTDFTLKISRVEAEDVGVYYCGQGTQVPYTFGQGTKLEIK | 0.39 |
| GLS3000 N28P (antibody, name in Kabat numbering, V domains shown, one-arm IgG as m2) VH: QVQLVESGGGVVQPGRSLRLSCAASGFTFSNAWMHWVRQAPGKGLEWVAQIKAKSNNYATYYAESVKGRFTISRDDSKNSLYLQMNSLKTEDTAVYYCRYVHYGAYYGVDAWGQGTTVTVSS VL: DIVMTQSPLSLPVTPGEPASISCRSSQSLVHSPRNTYLHWYQQKPGQAPRLLIYKVSNRFSGVPDRFSGSGSGTDFTLKISRVEAEDVGVYYCGQGTQVPYTFGQGTKLEIK | 0.36 |
| GLS3000 N28Q (antibody, name in Kabat numbering, V domains shown, one-arm IgG as m2) VH: QVQLVESGGGVVQPGRSLRLSCAASGFTFSNAWMHWVRQAPGKGLEWVAQIKAKSNNYATYYAESVKGRFTISRDDSKNSLYLQMNSLKTEDTAVYYCRYVHYGAYYGVDAWGQGTTVTVSS VL: DIVMTQSPLSLPVTPGEPASISCRSSQSLVHSQRNTYLHWYQQKPGQAPRLLIYKVSNRFSGVPDRFSGSGSGTDFTLKISRVEAEDVGVYYCGQGTQVPYTFGQGTKLEIK | 0.37 |
| GLS3000 N28S (antibody, name in Kabat numbering, V domains shown, one-arm IgG as m2) VH: QVQLVESGGGVVQPGRSLRLSCAASGFTFSNAWMHWVRQAPGKGLEWVAQIKAKSNNYATYYAESVKGRFTISRDDSKNSLYLQMNSLKTEDTAVYYCRYVHYGAYYGVDAWGQGTTVTVSS VL: DIVMTQSPLSLPVTPGEPASISCRSSQSLVHSSRNTYLHWYQQKPGQAPRLLIYKVSNRFSGVPDRFSGSGSGTDFTLKISRVEAEDVGVYYCGQGTQVPYTFGQGTKLEIK | 0.32 |
| GLS3000 N28T (antibody, name in Kabat numbering, V domains shown, one-arm IgG as m2) VH: QVQLVESGGGVVQPGRSLRLSCAASGFTFSNAWMHWVRQAPGKGLEWVAQIKAKSNNYATYYAESVKGRFTISRDDSKNSLYLQMNSLKTEDTAVYYCRYVHYGAYYGVDAWGQGTTVTVSS VL: DIVMTQSPLSLPVTPGEPASISCRSSQSLVHSTRNTYLHWYQQKPGQAPRLLIYKVSNRFSGVPDRFSGSGSGTDFTLKISRVEAEDVGVYYCGQGTQVPYTFGQGTKLEIK | 0.45 |
| GLS3000 N28V (antibody, name in Kabat numbering, V domains shown, one-arm IgG as m2) VH: QVQLVESGGGVVQPGRSLRLSCAASGFTFSNAWMHWVRQAPGKGLEWVAQIKAKSNNYATYYAESVKGRFTISRDDSKNSLYLQMNSLKTEDTAVYYCRYVHYGAYYGVDAWGQGTTVTVSS VL: DIVMTQSPLSLPVTPGEPASISCRSSQSLVHSVRNTYLHWYQQKPGQAPRLLIYKVSNRFSGVPDRFSGSGSGTDFTLKISRVEAEDVGVYYCGQGTQVPYTFGQGTKLEIK | 0.36 |
| GLS3000 N28W (antibody, name in Kabat numbering, V domains shown, one-arm IgG as m2) VH: QVQLVESGGGVVQPGRSLRLSCAASGFTFSNAWMHWVRQAPGKGLEWVAQIKAKSNNYATYYAESVKGRFTISRDDSKNSLYLQMNSLKTEDTAVYYCRYVHYGAYYGVDAWGQGTTVTVSS VL: DIVMTQSPLSLPVTPGEPASISCRSSQSLVHSWRNTYLHWYQQKPGQAPRLLIYKVSNRFSGVPDRFSGSGSGTDFTLKISRVEAEDVGVYYCGQGTQVPYTFGQGTKLEIK | 0.41 |
| GLS3000 N28Y (antibody, name in Kabat numbering, V domains shown, one-arm IgG as m2) VH: QVQLVESGGGVVQPGRSLRLSCAASGFTFSNAWMHWVRQAPGKGLEWVAQIKAKSNNYATYYAESVKGRFTISRDDSKNSLYLQMNSLKTEDTAVYYCRYVHYGAYYGVDAWGQGTTVTVSS VL: DIVMTQSPLSLPVTPGEPASISCRSSQSLVHSYRNTYLHWYQQKPGQAPRLLIYKVSNRFSGVPDRFSGSGSGTDFTLKISRVEAEDVGVYYCGQGTQVPYTFGQGTKLEIK | 0.26 |
| GLS3000 N30A (antibody, name in Kabat numbering, V domains shown, one-arm IgG as m2) VH: QVQLVESGGGVVQPGRSLRLSCAASGFTFSNAWMHWVRQAPGKGLEWVAQIKAKSNNYATYYAESVKGRFTISRDDSKNSLYLQMNSLKTEDTAVYYCRYVHYGAYYGVDAWGQGTTVTVSS VL: DIVMTQSPLSLPVTPGEPASISCRSSQSLVHSNRATYLHWYQQKPGQAPRLLIYKVSNRFSGVPDRFSGSGSGTDFTLKISRVEAEDVGVYYCGQGTQVPYTFGQGTKLEIK | 0.5 |
| GLS3000 N30D (antibody, name in Kabat numbering, V domains shown, one-arm IgG as m2) VH: QVQLVESGGGVVQPGRSLRLSCAASGFTFSNAWMHWVRQAPGKGLEWVAQIKAKSNNYATYYAESVKGRFTISRDDSKNSLYLQMNSLKTEDTAVYYCRYVHYGAYYGVDAWGQGTTVTVSS VL: DIVMTQSPLSLPVTPGEPASISCRSSQSLVHSNRDTYLHWYQQKPGQAPRLLIYKVSNRFSGVPDRFSGSGSGTDFTLKISRVEAEDVGVYYCGQGTQVPYTFGQGTKLEIK | 0.34 |
| GLS3000 N30E (antibody, name in Kabat numbering, V domains shown, one-arm IgG as m2) VH: QVQLVESGGGVVQPGRSLRLSCAASGFTFSNAWMHWVRQAPGKGLEWVAQIKAKSNNYATYYAESVKGRFTISRDDSKNSLYLQMNSLKTEDTAVYYCRYVHYGAYYGVDAWGQGTTVTVSS VL: DIVMTQSPLSLPVTPGEPASISCRSSQSLVHSNRETYLHWYQQKPGQAPRLLIYKVSNRFSGVPDRFSGSGSGTDFTLKISRVEAEDVGVYYCGQGTQVPYTFGQGTKLEIK | 0.44 |
| GLS3000 N30F (antibody, name in Kabat numbering, V domains shown, one-arm IgG as m2) VH: QVQLVESGGGVVQPGRSLRLSCAASGFTFSNAWMHWVRQAPGKGLEWVAQIKAKSNNYATYYAESVKGRFTISRDDSKNSLYLQMNSLKTEDTAVYYCRYVHYGAYYGVDAWGQGTTVTVSS VL: DIVMTQSPLSLPVTPGEPASISCRSSQSLVHSNRFTYLHWYQQKPGQAPRLLIYKVSNRFSGVPDRFSGSGSGTDFTLKISRVEAEDVGVYYCGQGTQVPYTFGQGTKLEIK | 1.1 |
| GLS3000 N30G (antibody, name in Kabat numbering, V domains shown, one-arm IgG as m2) VH: QVQLVESGGGVVQPGRSLRLSCAASGFTFSNAWMHWVRQAPGKGLEWVAQIKAKSNNYATYYAESVKGRFTISRDDSKNSLYLQMNSLKTEDTAVYYCRYVHYGAYYGVDAWGQGTTVTVSS VL: DIVMTQSPLSLPVTPGEPASISCRSSQSLVHSNRGTYLHWYQQKPGQAPRLLIYKVSNRFSGVPDRFSGSGSGTDFTLKISRVEAEDVGVYYCGQGTQVPYTFGQGTKLEIK | 0.47 |
| GLS3000 N30H (antibody, name in Kabat numbering, V domains shown, one-arm IgG as m2) VH: QVQLVESGGGVVQPGRSLRLSCAASGFTFSNAWMHWVRQAPGKGLEWVAQIKAKSNNYATYYAESVKGRFTISRDDSKNSLYLQMNSLKTEDTAVYYCRYVHYGAYYGVDAWGQGTTVTVSS VL: DIVMTQSPLSLPVTPGEPASISCRSSQSLVHSNRHTYLHWYQQKPGQAPRLLIYKVSNRFSGVPDRFSGSGSGTDFTLKISRVEAEDVGVYYCGQGTQVPYTFGQGTKLEIK | 0.98 |
| GLS3000 N30I (antibody, name in Kabat numbering, V domains shown, one-arm IgG as m2) VH: QVQLVESGGGVVQPGRSLRLSCAASGFTFSNAWMHWVRQAPGKGLEWVAQIKAKSNNYATYYAESVKGRFTISRDDSKNSLYLQMNSLKTEDTAVYYCRYVHYGAYYGVDAWGQGTTVTVSS VL: DIVMTQSPLSLPVTPGEPASISCRSSQSLVHSNRITYLHWYQQKPGQAPRLLIYKVSNRFSGVPDRFSGSGSGTDFTLKISRVEAEDVGVYYCGQGTQVPYTFGQGTKLEIK | 0.61 |
| GLS3000 N30K (antibody, name in Kabat numbering, V domains shown, one-arm IgG as m2) VH: QVQLVESGGGVVQPGRSLRLSCAASGFTFSNAWMHWVRQAPGKGLEWVAQIKAKSNNYATYYAESVKGRFTISRDDSKNSLYLQMNSLKTEDTAVYYCRYVHYGAYYGVDAWGQGTTVTVSS VL: DIVMTQSPLSLPVTPGEPASISCRSSQSLVHSNRKTYLHWYQQKPGQAPRLLIYKVSNRFSGVPDRFSGSGSGTDFTLKISRVEAEDVGVYYCGQGTQVPYTFGQGTKLEIK | 1.65 |
| GLS3000 N30L (antibody, name in Kabat numbering, V domains shown, one-arm IgG as m2) VH: QVQLVESGGGVVQPGRSLRLSCAASGFTFSNAWMHWVRQAPGKGLEWVAQIKAKSNNYATYYAESVKGRFTISRDDSKNSLYLQMNSLKTEDTAVYYCRYVHYGAYYGVDAWGQGTTVTVSS VL: DIVMTQSPLSLPVTPGEPASISCRSSQSLVHSNRLTYLHWYQQKPGQAPRLLIYKVSNRFSGVPDRFSGSGSGTDFTLKISRVEAEDVGVYYCGQGTQVPYTFGQGTKLEIK | 0.7 |
| GLS3000 N30M (antibody, name in Kabat numbering, V domains shown, one-arm IgG as m2) VH: QVQLVESGGGVVQPGRSLRLSCAASGFTFSNAWMHWVRQAPGKGLEWVAQIKAKSNNYATYYAESVKGRFTISRDDSKNSLYLQMNSLKTEDTAVYYCRYVHYGAYYGVDAWGQGTTVTVSS VL: DIVMTQSPLSLPVTPGEPASISCRSSQSLVHSNRMTYLHWYQQKPGQAPRLLIYKVSNRFSGVPDRFSGSGSGTDFTLKISRVEAEDVGVYYCGQGTQVPYTFGQGTKLEIK | 0.8 |
